Reference: the supplement of paper PMC10065799, “High-throughput profiling of sequence recognition by tyrosine kinases and SH2 domains using bacterial peptide display” (eLife, 2023)

Legend:
AncSZ = assay: phosphorylation enrichment, bacterial display (enrichment ratio); higher = better substrate or ligand; peptides without Tyr show the background
EPHB1 = EPHB1 (UniProt P54762); assay: as above
EPHB2 = EPHB2 (UniProt P29323); assay: as above
FGFR1 = FGFR1 (UniProt P11362); assay: as above
FGFR3 = FGFR3 (UniProt P22607); assay: as above
Fer (mouse) = assay: as above
Fes = Fes (UniProt P07332); assay: as above
Fyn = Fyn (UniProt P06241); assay: as above
Hck = Hck (UniProt P08631); assay: as above
Jak2 = Jak2 (UniProt O60674); assay: as above
MERTK = MERTK (UniProt Q12866); assay: as above
c-Abl (mouse) = assay: as above
c-Src = assay: as above
Grb2 SH2 = Grb2 SH2 (UniProt P62993); assay: SH2 binding enrichment of the phosphorylated peptide, bacterial display (enrichment ratio); higher = better substrate or ligand; peptides without Tyr show the background
SHP2-C SH2 = assay: as above
c-Src SH2 = assay: as above
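Throughout, for SH2 binding enrichment of the phosphorylated peptide, bacterial display: peptide library displayed on the E. coli surface as eCPX fusions, selected cells deep-sequenced, score is each peptide's frequency after selection divided by its frequency in the input.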
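Throughout, for phosphorylation enrichment, bacterial display: 11-residue human phosphosite peptides and single-mutation variants displayed on the E. coli surface, counted by deep sequencing, each peptide's frequency after selection divided by its frequency in the unselected input library; frequency after pTyr selection over input frequency; kinase dosed for 20-30% of maximal phosphorylation in three min.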

Chain of FGFR3 (P22607 whole entry, looked up): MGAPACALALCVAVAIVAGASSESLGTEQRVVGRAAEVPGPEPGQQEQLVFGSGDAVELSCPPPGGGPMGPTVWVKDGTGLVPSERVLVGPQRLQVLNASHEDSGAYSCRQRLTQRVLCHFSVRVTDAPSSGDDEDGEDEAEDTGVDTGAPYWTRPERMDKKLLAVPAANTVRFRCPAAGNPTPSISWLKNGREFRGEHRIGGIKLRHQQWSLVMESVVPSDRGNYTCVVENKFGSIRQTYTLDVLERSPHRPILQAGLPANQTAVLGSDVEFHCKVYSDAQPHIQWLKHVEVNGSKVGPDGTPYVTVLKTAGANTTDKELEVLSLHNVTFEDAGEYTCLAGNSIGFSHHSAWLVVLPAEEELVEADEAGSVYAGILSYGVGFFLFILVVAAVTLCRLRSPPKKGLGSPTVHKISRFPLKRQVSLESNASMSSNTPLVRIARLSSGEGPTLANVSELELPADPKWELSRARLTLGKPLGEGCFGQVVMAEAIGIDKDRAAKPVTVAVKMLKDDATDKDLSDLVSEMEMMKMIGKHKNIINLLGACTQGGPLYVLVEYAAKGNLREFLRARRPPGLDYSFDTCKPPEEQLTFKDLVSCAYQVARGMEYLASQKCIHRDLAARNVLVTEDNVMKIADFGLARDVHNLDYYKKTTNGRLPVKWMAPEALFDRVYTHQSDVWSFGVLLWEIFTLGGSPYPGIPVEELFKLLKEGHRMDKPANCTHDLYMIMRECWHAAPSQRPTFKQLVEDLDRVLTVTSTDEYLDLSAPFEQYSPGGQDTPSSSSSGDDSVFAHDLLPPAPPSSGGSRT
Chain of Fes (P07332 whole entry, looked up): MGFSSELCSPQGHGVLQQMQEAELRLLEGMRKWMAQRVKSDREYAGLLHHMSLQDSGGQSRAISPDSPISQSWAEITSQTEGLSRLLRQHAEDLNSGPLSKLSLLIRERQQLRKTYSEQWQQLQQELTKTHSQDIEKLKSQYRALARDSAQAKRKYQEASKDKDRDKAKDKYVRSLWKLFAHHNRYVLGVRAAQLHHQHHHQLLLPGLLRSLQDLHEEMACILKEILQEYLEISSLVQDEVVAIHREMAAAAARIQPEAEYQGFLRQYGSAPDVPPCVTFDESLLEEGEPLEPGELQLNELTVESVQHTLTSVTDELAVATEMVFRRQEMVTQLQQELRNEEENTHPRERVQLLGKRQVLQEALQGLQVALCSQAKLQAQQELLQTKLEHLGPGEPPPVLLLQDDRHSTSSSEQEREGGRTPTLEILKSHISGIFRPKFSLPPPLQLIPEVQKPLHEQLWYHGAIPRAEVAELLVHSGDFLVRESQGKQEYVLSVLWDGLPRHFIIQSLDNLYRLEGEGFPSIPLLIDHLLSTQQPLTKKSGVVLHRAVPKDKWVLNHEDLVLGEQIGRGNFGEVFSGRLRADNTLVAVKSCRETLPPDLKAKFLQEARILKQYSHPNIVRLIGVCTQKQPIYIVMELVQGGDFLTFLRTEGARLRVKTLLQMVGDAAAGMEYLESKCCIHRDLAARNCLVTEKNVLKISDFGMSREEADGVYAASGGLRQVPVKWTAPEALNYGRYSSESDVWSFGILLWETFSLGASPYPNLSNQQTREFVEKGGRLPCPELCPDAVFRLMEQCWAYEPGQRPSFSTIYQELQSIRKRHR
Chain of Hck (P08631 whole entry, looked up): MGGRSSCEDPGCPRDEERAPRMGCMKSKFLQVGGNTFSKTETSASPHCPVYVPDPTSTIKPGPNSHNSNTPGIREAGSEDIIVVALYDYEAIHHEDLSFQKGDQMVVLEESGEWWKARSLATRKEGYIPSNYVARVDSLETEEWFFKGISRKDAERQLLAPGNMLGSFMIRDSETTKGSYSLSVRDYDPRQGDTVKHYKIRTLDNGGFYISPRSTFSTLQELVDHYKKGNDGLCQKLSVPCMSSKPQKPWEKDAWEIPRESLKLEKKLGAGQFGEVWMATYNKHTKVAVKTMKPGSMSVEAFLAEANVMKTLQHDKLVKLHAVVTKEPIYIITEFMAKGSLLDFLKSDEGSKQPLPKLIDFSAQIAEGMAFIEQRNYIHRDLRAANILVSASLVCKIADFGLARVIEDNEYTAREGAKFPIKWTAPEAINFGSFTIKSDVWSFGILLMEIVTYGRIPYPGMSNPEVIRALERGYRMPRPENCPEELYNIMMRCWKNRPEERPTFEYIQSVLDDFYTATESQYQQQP
Chain of FGFR1 (P11362 whole entry, looked up): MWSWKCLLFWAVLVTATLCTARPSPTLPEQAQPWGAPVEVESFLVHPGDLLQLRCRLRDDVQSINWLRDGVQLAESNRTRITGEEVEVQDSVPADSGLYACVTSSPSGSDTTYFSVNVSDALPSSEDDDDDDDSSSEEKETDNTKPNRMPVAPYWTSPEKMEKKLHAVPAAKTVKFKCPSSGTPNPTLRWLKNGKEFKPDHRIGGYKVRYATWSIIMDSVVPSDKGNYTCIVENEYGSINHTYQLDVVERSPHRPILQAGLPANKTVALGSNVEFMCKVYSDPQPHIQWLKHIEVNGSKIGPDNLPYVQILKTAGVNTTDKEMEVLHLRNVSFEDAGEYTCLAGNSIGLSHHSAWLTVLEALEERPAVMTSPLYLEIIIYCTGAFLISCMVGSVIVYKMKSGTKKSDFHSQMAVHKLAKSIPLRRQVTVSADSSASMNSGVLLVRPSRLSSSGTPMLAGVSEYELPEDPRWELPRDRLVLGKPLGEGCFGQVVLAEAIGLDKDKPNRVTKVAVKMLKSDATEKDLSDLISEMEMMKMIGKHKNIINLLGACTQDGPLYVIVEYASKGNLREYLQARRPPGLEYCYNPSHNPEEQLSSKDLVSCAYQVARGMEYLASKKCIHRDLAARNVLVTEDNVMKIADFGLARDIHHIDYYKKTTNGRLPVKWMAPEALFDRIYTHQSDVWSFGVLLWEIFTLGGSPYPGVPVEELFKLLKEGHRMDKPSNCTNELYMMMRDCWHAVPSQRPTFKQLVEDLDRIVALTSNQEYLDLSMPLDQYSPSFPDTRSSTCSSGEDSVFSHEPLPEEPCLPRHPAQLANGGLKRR
Chain of EPHB1 (P54762 whole entry, looked up): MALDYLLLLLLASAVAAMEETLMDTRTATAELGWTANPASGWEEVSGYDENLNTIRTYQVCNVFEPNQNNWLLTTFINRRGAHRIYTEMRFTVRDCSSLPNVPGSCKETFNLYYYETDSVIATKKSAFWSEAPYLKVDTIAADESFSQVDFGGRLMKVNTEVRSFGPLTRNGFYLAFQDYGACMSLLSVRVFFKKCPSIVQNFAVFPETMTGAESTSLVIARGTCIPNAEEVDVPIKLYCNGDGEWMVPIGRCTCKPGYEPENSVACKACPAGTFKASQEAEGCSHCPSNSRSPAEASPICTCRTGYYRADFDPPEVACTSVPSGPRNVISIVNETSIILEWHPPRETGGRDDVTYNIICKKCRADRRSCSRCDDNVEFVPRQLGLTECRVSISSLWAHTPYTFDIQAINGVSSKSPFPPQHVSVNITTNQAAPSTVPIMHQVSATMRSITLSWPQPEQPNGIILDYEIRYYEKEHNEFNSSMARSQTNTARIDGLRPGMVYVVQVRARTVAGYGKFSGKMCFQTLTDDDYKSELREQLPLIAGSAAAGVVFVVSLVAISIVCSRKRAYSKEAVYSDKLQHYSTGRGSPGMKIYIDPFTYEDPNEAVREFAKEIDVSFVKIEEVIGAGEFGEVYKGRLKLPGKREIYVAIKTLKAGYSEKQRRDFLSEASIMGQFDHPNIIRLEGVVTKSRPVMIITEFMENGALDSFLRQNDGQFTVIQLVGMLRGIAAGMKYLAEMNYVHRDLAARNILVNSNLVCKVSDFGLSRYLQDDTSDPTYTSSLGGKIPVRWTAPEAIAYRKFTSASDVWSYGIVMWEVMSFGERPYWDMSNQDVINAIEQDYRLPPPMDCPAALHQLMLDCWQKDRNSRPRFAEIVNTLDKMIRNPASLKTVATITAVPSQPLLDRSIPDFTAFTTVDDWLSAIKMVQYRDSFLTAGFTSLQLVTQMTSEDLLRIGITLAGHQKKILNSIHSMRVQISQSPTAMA
Chain of Jak2 (O60674 whole entry, looked up): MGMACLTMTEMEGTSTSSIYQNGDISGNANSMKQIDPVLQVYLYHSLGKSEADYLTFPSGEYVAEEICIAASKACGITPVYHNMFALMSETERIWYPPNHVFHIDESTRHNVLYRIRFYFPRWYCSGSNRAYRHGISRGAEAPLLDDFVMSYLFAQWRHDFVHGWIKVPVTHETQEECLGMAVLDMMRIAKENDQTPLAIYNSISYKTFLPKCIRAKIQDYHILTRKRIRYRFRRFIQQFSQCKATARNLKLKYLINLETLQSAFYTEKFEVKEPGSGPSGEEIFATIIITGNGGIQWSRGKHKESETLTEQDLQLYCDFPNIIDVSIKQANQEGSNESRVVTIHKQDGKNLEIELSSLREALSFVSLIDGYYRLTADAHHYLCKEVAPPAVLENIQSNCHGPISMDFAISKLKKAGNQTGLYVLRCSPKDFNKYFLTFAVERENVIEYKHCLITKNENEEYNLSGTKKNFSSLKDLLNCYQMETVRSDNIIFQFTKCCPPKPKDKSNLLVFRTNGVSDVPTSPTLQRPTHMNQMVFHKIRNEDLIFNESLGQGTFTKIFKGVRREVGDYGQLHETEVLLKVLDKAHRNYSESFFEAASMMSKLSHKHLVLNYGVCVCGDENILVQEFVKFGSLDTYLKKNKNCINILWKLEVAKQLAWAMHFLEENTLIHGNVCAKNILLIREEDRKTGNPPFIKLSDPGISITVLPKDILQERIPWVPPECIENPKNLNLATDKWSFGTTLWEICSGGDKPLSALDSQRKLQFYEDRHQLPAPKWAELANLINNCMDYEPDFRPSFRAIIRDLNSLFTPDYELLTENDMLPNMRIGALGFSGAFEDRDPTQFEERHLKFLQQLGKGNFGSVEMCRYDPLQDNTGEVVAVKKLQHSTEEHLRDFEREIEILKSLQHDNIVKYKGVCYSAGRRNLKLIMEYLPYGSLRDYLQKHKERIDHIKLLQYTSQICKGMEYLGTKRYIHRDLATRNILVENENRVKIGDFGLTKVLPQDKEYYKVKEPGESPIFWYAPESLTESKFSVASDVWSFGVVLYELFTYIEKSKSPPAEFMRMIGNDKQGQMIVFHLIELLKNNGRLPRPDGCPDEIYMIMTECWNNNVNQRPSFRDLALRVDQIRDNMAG

| Sequence | SH2 binding enrichment (Grb2 SH2) | SH2 binding enrichment (SHP2-C SH2) | SH2 binding enrichment (c-Src SH2) | phosphorylation enrichment (AncSZ) | phosphorylation enrichment (EPHB1) | phosphorylation enrichment (EPHB2) | phosphorylation enrichment (FGFR1) | phosphorylation enrichment (FGFR3) | phosphorylation enrichment (Fer (mouse)) | phosphorylation enrichment (Fes) | phosphorylation enrichment (Fyn) | phosphorylation enrichment (Hck) | phosphorylation enrichment (Jak2) | phosphorylation enrichment (MERTK) | phosphorylation enrichment (c-Abl (mouse)) | phosphorylation enrichment (c-Src) |
| --- | --- | --- | --- | --- | --- | --- | --- | --- | --- | --- | --- | --- | --- | --- | --- | --- |
| TLNHQYDFTFH [CSNK1A1_Y292_D297H_YF] | 1.01 | 0.717 | 4.74 | 1.02 | 0.759 | 0.624 | 0.557 | 0.785 | 0.685 | 1.17 | 0.588 | 0.559 | 0.738 | 0.557 | 0.735 | 0.58 |
| TLQSMFGCDVG [HLA-B_Y123_Y123F] | 0.79 | 0.684 | 0.541 | 0.989 | 0.657 | 0.85 | 0.515 | 0.7 | 0.523 | 1.09 | 0.648 | 0.489 | 0.852 | 0.511 | 0.637 | 0.44 |
| TRSCKYLLLSM [NF1_Y491_Y489C] | 1.41 | 1.58 | 1.04 | 0.823 | 0.521 | 0.621 | 0.53 | 0.552 | 0.416 | 0.954 | 0.441 | 0.549 | 0.864 | 0.512 | 0.614 | 0.39 |
| TRSFDYMEGGD [FGF7_Y58_YF] | 1.07 | 0.791 | 0.576 | 1.03 | 0.487 | 0.544 | 0.617 | 0.674 | 0.416 | 1.18 | 0.535 | 0.599 | 1.05 | 0.613 | 0.761 | 0.446 |
| TSSAGYRAAEG [COL6A3_Y543] | 0.903 | 0.653 | 0.485 | 0.524 | 0.505 | 0.406 | 0.573 | 0.641 | 0.429 | 0.629 | 0.422 | 0.379 | 0.365 | 0.365 | 0.309 | 0.316 |
| TTSQLYDAVPI [PDPK1_Y9] | 0.728 | 0.848 | 0.485 | 1.28 | 13.4 | 17.1 | 0.611 | 0.786 | 19.6 | 1.41 | 10.2 | 11.5 | 0.849 | 13 | 1.31 | 7.33 |
| TTSQPYRCLCS [USH2A_Y534] | 1.24 | 0.992 | 0.653 | 0.951 | 0.473 | 0.587 | 0.552 | 0.707 | 0.509 | 0.941 | 0.557 | 0.523 | 0.931 | 0.781 | 1.07 | 0.562 |
| TTTQAYRVNER [PRKN_Y391_D394N] | 0.848 | 0.576 | 0.438 | 0.496 | 0.445 | 0.31 | 0.421 | 0.386 | 0.447 | 0.514 | 0.324 | 0.397 | 0.531 | 0.4 | 0.492 | 0.473 |
| TVLGEYASPKG [CYP24A1_Y407_L409S] | 1.02 | 0.793 | 0.596 | 0.733 | 0.508 | 0.612 | 0.405 | 0.482 | 0.371 | 0.619 | 0.498 | 0.578 | 0.561 | 0.513 | 3.4 | 0.468 |
| TVQIMYGCDVG [HLA-A_Y123_I119V] | 0.861 | 0.553 | 0.545 | 0.945 | 0.676 | 0.773 | 0.539 | 0.917 | 0.611 | 1.22 | 0.575 | 0.567 | 0.955 | 0.444 | 0.737 | 0.47 |
| VAMDDYLKNVV [LRRK2_Y707_M712V] | 0.828 | 0.648 | 0.573 | 0.872 | 0.482 | 0.59 | 0.468 | 0.666 | 0.405 | 0.919 | 0.364 | 0.477 | 0.708 | 0.393 | 0.518 | 0.376 |
| VCDSNYSASRW [LRP5_Y1552_D1551N] | 0.872 | 0.7 | 0.648 | 0.719 | 1.62 | 1.85 | 0.509 | 0.626 | 0.513 | 0.864 | 0.483 | 0.508 | 0.618 | 0.426 | 0.507 | 0.396 |
| VDESLYKTHPQ [HK1_Y417_G414E] | 0.76 | 0.624 | 0.458 | 0.904 | 0.513 | 0.706 | 0.644 | 0.699 | 0.572 | 0.989 | 0.592 | 0.656 | 0.811 | 0.553 | 0.9 | 0.541 |
| VDLSKYITTIA [FAS_Y232] | 0.881 | 0.604 | 0.451 | 0.657 | 0.378 | 0.341 | 0.363 | 0.452 | 0.394 | 0.815 | 0.348 | 0.407 | 0.67 | 0.426 | 0.513 | 0.424 |
| VDTPMYATMQR [TPO_Y55_A53P] | 0.803 | 1.27 | 2.09 | 0.826 | 1.1 | 0.838 | 0.52 | 0.684 | 0.706 | 0.942 | 3.58 | 5.46 | 0.593 | 1.81 | 2.11 | 3.3 |
| VEDDMYRKTCT [XPA_Y257_L252V] | 0.894 | 0.828 | 0.494 | 1.33 | 0.676 | 0.636 | 0.559 | 0.868 | 0.696 | 1.3 | 0.602 | 0.626 | 1.33 | 0.507 | 0.932 | 0.544 |
| VEDQFYRVDCF [FHL1_Y208_C209R_YF] | 0.875 | 0.601 | 0.515 | 1.16 | 0.692 | 0.587 | 0.522 | 0.831 | 0.559 | 1.34 | 0.693 | 0.551 | 1.24 | 0.557 | 0.863 | 1.1 |
| VERIGYDFIPT [CBS_Y308_G305R] | 0.934 | 0.686 | 3.49 | 0.759 | 0.544 | 0.461 | 0.56 | 0.605 | 0.417 | 0.801 | 0.529 | 0.571 | 0.611 | 0.521 | 0.593 | 0.434 |
| VGSIEYLKREW [KCNMA1_Y885] | 0.977 | 1.06 | 0.473 | 0.823 | 0.35 | 0.487 | 0.523 | 0.612 | 0.447 | 0.967 | 0.359 | 0.511 | 0.927 | 0.38 | 0.488 | 0.446 |
| VHLFAYDWISI [BEST1_Y227_G222V_YF] | 1.3 | 1.36 | 0.972 | 1.27 | 1.06 | 0.868 | 1.41 | 1.17 | 10.4 | 1.38 | 0.589 | 0.804 | 1.04 | 4.12 | 0.69 | 0.651 |
| VIIVLYFSLWK [SLC6A2_Y249_V245I] | 1.95 | 1.74 | 1.3 | 0.774 | 0.363 | 0.371 | 0.462 | 0.548 | 0.471 | 0.631 | 0.375 | 0.369 | 0.702 | 0.354 | 0.693 | 0.386 |

Further lines, with some results ahead:

| SH2 binding enrichment (Grb2 SH2) | SH2 binding enrichment (SHP2-C SH2) | SH2 binding enrichment (c-Src SH2) | Sequence | phosphorylation enrichment (AncSZ) | phosphorylation enrichment (EPHB1) | phosphorylation enrichment (EPHB2) | phosphorylation enrichment (FGFR1) | phosphorylation enrichment (FGFR3) | phosphorylation enrichment (Fer (mouse)) | phosphorylation enrichment (Fes) | phosphorylation enrichment (Fyn) | phosphorylation enrichment (Hck) | phosphorylation enrichment (Jak2) | phosphorylation enrichment (MERTK) | phosphorylation enrichment (c-Abl (mouse)) | phosphorylation enrichment (c-Src) |
| --- | --- | --- | --- | --- | --- | --- | --- | --- | --- | --- | --- | --- | --- | --- | --- | --- |
| 0.962 | 0.829 | 0.637 | TRLAQYDSNSK [BMX_Y216_S212R] | 0.713 | 0.399 | 0.402 | 0.527 | 0.41 | 0.445 | 0.684 | 0.44 | 0.42 | 0.811 | 0.682 | 0.776 | 0.643 |
| 0.721 | 0.766 | 0.593 | TRNRDYDDIDD [TTYH2_Y424] | 1.02 | 0.497 | 0.563 | 0.562 | 0.665 | 0.438 | 0.917 | 0.451 | 0.527 | 0.734 | 0.507 | 0.621 | 0.448 |
| 0.777 | 0.506 | 1.02 | TRYDEYLEVTK [MAP1A_Y2217_H2214Y] | 1.31 | 0.98 | 0.884 | 0.901 | 0.872 | 0.592 | 1.25 | 0.519 | 0.539 | 1.16 | 0.425 | 0.909 | 0.538 |
| 0.704 | 0.655 | 0.471 | TTEHIYGDKFF [UBA7_Y524_N527K] | 0.722 | 0.468 | 0.477 | 0.597 | 0.563 | 0.502 | 0.762 | 4.92 | 2.15 | 0.648 | 0.459 | 0.728 | 4.65 |
| 0.516 | 0.456 | 1.28 | TVLEPYTDPYY [ZC3H18_Y367_A368T] | 1.2 | 0.611 | 0.541 | 1 | 0.797 | 0.433 | 0.857 | 0.656 | 0.649 | 0.805 | 0.524 | 0.568 | 0.845 |
| 0.567 | 0.67 | 0.78 | VASSLYDILAR [GLB1_Y294] | 1.02 | 1.16 | 1.01 | 0.37 | 0.557 | 1.96 | 1.05 | 1.77 | 8.2 | 1.24 | 8.38 | 0.763 | 2.84 |
| 0.813 | 0.729 | 0.53 | VAVTKYCKEEL [ATP7B_Y1078] | 0.877 | 0.508 | 0.547 | 0.498 | 0.776 | 0.494 | 0.917 | 0.455 | 0.593 | 0.844 | 0.37 | 0.651 | 0.477 |
| 0.677 | 0.541 | 6.34 | VDSAHYQLLET [DTX3L_Y385_K386Q] | 0.946 | 0.813 | 0.616 | 1.14 | 0.952 | 4.07 | 0.909 | 0.588 | 0.709 | 0.891 | 1.13 | 0.728 | 0.705 |
| 0.807 | 0.658 | 0.603 | VECRVYAEDPY [PCCA_Y401] | 1.47 | 0.908 | 0.794 | 0.619 | 1.13 | 0.708 | 1.73 | 0.612 | 0.686 | 1.26 | 0.56 | 1.28 | 0.75 |
| 1.01 | 0.798 | 0.534 | VGQRPYQPLPE [REEP3_Y170] | 0.617 | 0.38 | 0.424 | 0.47 | 0.525 | 0.336 | 0.649 | 0.375 | 0.36 | 0.505 | 0.406 | 0.547 | 0.393 |
| 1.16 | 0.723 | 0.802 | VGSIKYLKREW [KCNMA1_Y885_E884K] | 0.68 | 0.56 | 0.505 | 0.412 | 0.431 | 0.465 | 0.754 | 0.395 | 0.446 | 0.61 | 0.311 | 0.482 | 0.38 |
| 0.87 | 0.858 | 1.97 | VIEFSYTSADG [DHCR7_Y382_C380Y_YF] | 0.944 | 0.562 | 0.504 | 0.444 | 0.652 | 0.499 | 1.16 | 0.442 | 0.503 | 0.764 | 0.415 | 0.608 | 0.341 |
